T1: Smc6(N643C) (S. cerevisiae, UniProt Q12749 1-1114, N643C)
T1 construct: Smc6, S. cerevisiae; subunit of the Hinge-Cys (south) hexamer; also called Hinge-Cys south, Smc6; source: E. coli (DE3) Rosetta, purified as part of the hexamer
T1 sequence (looked up): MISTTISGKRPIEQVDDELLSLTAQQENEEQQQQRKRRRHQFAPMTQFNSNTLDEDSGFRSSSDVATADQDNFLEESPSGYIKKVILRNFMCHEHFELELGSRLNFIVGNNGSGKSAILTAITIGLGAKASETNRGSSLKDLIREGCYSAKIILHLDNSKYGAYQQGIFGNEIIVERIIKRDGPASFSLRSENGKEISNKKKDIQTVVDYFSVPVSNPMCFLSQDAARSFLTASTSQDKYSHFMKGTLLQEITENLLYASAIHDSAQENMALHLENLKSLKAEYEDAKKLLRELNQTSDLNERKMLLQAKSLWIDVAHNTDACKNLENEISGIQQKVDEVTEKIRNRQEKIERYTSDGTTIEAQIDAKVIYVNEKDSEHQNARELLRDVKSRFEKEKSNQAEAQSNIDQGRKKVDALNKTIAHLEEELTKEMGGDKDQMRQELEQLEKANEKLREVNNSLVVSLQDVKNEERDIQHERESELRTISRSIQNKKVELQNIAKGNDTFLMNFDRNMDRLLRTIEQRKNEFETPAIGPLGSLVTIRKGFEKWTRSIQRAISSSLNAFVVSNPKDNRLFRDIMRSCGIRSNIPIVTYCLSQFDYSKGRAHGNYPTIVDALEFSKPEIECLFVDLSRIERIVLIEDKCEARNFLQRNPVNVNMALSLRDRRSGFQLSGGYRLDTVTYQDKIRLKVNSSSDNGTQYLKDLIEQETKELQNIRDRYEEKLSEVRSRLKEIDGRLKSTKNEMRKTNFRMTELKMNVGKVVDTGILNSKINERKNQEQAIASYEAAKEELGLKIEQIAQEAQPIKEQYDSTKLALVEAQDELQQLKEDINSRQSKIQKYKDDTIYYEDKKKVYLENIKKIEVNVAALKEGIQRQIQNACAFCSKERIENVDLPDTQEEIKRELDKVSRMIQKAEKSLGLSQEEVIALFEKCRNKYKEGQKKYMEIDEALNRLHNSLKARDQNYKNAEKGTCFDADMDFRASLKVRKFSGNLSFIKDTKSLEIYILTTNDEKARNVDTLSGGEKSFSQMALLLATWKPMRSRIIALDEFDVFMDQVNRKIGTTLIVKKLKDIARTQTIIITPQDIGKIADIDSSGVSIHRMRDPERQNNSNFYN

T2: Smc6(N572C) (S. cerevisiae, UniProt Q12749 1-1114, N572C)
T2 construct: Smc6, S. cerevisiae; subunit of the Hinge-Cys (north) hexamer; also called Hinge-Cys north, Smc6; source: E. coli (DE3) Rosetta, purified as part of the hexamer
T2 sequence (looked up): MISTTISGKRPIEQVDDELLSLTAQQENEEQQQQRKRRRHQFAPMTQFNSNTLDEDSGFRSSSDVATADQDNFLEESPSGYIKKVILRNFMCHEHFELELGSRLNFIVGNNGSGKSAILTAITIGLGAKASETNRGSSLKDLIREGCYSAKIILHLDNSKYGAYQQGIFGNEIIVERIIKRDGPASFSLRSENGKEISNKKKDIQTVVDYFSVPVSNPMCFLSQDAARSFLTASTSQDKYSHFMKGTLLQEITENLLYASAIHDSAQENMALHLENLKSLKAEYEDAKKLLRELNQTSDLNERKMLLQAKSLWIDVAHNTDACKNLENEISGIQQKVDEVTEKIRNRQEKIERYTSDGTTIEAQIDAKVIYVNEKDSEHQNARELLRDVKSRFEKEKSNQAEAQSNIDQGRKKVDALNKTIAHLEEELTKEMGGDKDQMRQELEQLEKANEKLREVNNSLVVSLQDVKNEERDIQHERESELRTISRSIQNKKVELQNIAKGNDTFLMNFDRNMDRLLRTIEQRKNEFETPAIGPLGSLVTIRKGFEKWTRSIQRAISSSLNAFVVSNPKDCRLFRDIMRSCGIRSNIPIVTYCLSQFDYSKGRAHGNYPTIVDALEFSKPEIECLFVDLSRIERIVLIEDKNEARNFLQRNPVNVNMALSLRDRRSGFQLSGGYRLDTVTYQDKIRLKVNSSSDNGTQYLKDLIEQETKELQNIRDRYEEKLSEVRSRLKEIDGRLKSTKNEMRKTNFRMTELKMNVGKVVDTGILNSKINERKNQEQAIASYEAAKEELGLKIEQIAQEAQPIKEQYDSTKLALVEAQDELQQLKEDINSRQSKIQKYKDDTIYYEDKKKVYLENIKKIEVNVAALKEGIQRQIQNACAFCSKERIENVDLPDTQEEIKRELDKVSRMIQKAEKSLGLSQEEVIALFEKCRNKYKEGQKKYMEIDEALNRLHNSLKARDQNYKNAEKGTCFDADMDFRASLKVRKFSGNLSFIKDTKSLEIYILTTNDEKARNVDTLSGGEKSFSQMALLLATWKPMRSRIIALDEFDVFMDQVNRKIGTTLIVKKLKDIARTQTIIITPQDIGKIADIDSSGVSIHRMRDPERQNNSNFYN


Tests used:
Smc6(N643C) = biological target: T1, Smc6(N643C); assay: cross-linking; BMOE (1 mM, 45 s) on hexamers with reporter cysteines, 0.5 µM in ATPase buffer; without or with Nse5/6 (0.625 µM), 2 mM ATP, plasmid DNA or 40 bp DNA; SDS-PAGE, Coomassie; conditions: both partners purified
Smc6(N572C) = biological target: T2, Smc6(N572C); assay: as above; conditions: both partners purified

| binding result (Smc6(N643C)) | binding result (Smc6(N572C)) | Binder |
| --- | --- | --- |
| binds | – | Smc5(N526C) (natural protein, S. cerevisiae, UniProt Q08204 1-1093, looked up, Smc5, S. cerevisiae; subunit of the Hinge-Cys (south) hexamer; also called Hinge-Cys south, Smc5; source: E. coli (DE3) Rosetta, purified as part of the hexamer) MTSLIDLGRYVERTHHGEDTEPRSKRVKIAKPDLSSFQPGSIIKIRLQDFVTYTLTEFNLSPSLNMIIGPNGSGKSTFVCAVCLGLAGKPEYIGRSKKVEDFIKNGQDVSKIEITLKNSPNVTDIEYIDARDETIKITRIITRSKRRSDYLINDYQVSESVVKTLVAQLNIQLDNLCQFLSQERVEEFARLKSVKLLVETIRSIDASLLDVLDELRELQGNEQSLQKDLDFKKAKIVHLRQESDKLRKSVESLRDFQNKKGEIELHSQLLPYVKVKDHKEKLNIYKEEYERAKANLRAILKDKKPFANTKKTLENQVEELTEKCSLKTDEFLKAKEKINEIFEKLNTIRDEVIKKKNQNEYYRGRTKKLQATIISTKEDFLRSQEILAQTHLPEKSVFEDIDIKRKEIINKEGEIRDLISEIDAKANAINHEMRSIQRQAESKTKSLTTTDKIGILNQDQDLKEVRDAVLMVREHPEMKDKILEPPIMTVSAINAQFAAYLAQCVDYNTSKALTVVDSDSYKLFACPILDKFKVNLRELSSADTTPPVPAETVRDLGFEGYLSDFITGDKRVMKMLCQTSKIHTIPVSRRELTPAQIKKLITPRPNGKILFKRIIHGNRLVDIKQSAYGSKQVFPTDVSIKQTNFYQGSIMSNEQKIRIENEIINLKNEYNDRKSTLDALSNQKSGYRHELSELASKNDDINREAHQLNEIRKKYTMRKSTIETLREKLDQLKREARKDVSQKIKDIDDQIQQLLLKQRHLLSKMASSMKSLKNCQKELISTQILQFEAQNMDVSMNDVIGFFNEREADLKSQYEDKKKFVKEMRDTPEFQSWMREIRSYDQDTKEKLNKVAEKYEEEGNFNLSFVQDVLDKLESEIAMVNHDESAVTILDQVTAELRELEHTVPQQSKDLETIKAKLKEDHAVLEPKLDDIVSKISARFARLFNNVGSAGAVRLEKPKDYAEWKIEIMVKFRDNAPLKKLDSHTQSGGERAVSTVLYMIALQEFTSAPFRVVDEINQGMDSRNERIVHKAMVENACAENTSQYFLITPKLLTGLHYHEKMRIHCVMAGSWIPNPSEDPKMIHFGETSNYSFD |
| – | binds | Smc5(V638C) (natural protein, S. cerevisiae, UniProt Q08204 1-1093, looked up, Smc5, S. cerevisiae; subunit of the Hinge-Cys (north) hexamer; also called Hinge-Cys north, Smc5; source: E. coli (DE3) Rosetta, purified as part of the hexamer) MTSLIDLGRYVERTHHGEDTEPRSKRVKIAKPDLSSFQPGSIIKIRLQDFVTYTLTEFNLSPSLNMIIGPNGSGKSTFVCAVCLGLAGKPEYIGRSKKVEDFIKNGQDVSKIEITLKNSPNVTDIEYIDARDETIKITRIITRSKRRSDYLINDYQVSESVVKTLVAQLNIQLDNLCQFLSQERVEEFARLKSVKLLVETIRSIDASLLDVLDELRELQGNEQSLQKDLDFKKAKIVHLRQESDKLRKSVESLRDFQNKKGEIELHSQLLPYVKVKDHKEKLNIYKEEYERAKANLRAILKDKKPFANTKKTLENQVEELTEKCSLKTDEFLKAKEKINEIFEKLNTIRDEVIKKKNQNEYYRGRTKKLQATIISTKEDFLRSQEILAQTHLPEKSVFEDIDIKRKEIINKEGEIRDLISEIDAKANAINHEMRSIQRQAESKTKSLTTTDKIGILNQDQDLKEVRDAVLMVREHPEMKDKILEPPIMTVSAINAQFAAYLAQCVDYNTSKALTVVDSDSYKLFANPILDKFKVNLRELSSADTTPPVPAETVRDLGFEGYLSDFITGDKRVMKMLCQTSKIHTIPVSRRELTPAQIKKLITPRPNGKILFKRIIHGNRLVDIKQSAYGSKQVFPTDCSIKQTNFYQGSIMSNEQKIRIENEIINLKNEYNDRKSTLDALSNQKSGYRHELSELASKNDDINREAHQLNEIRKKYTMRKSTIETLREKLDQLKREARKDVSQKIKDIDDQIQQLLLKQRHLLSKMASSMKSLKNCQKELISTQILQFEAQNMDVSMNDVIGFFNEREADLKSQYEDKKKFVKEMRDTPEFQSWMREIRSYDQDTKEKLNKVAEKYEEEGNFNLSFVQDVLDKLESEIAMVNHDESAVTILDQVTAELRELEHTVPQQSKDLETIKAKLKEDHAVLEPKLDDIVSKISARFARLFNNVGSAGAVRLEKPKDYAEWKIEIMVKFRDNAPLKKLDSHTQSGGERAVSTVLYMIALQEFTSAPFRVVDEINQGMDSRNERIVHKAMVENACAENTSQYFLITPKLLTGLHYHEKMRIHCVMAGSWIPNPSEDPKMIHFGETSNYSFD |

— PMC8327961, “Nse5/6 inhibits the Smc5/6 ATPase and modulates DNA substrate binding” (The EMBO Journal, 2021)
